Patent US12391751B2, “Antibody against advanced glycation end products and use thereof” (Bloom Technology Corporation, priority 2018, dated 2025)

Tests used:
[1] = Reactivity of SJ-5 with Lys-hydroxy-triosidine by competitive ELISA (Example 18); format: binding; settings: immobilized Glycer-AGEs-BSA
Method: A solution of BSA containing AGEs derived from glyceraldehyde (stock solution: 10 mg/mL PBS solution) prepared into 1 μg/mL in a coating solution was added at 100 μL/well to a 96-well microtiter plate (COSTAR) and incubated overnight at 4° C.
Each well after the immobilization treatment was washed three times with a washing solution (300 μL), and a blocking solution (200 μL) was added thereto and left at room temperature for 1 hour.
GAL691 (prepared in Example 16) and Lys-hydroxy-triosidine (prepared in Example 17) were each dissolved in a phosphate buffer solution (0.2 M, pH 7.4) to prepare a 10 mg/mL solution. Sample solutions of 2-fold dilution series from 0.625 to 10 mg/ml (5 points) were further prepared by dilution with a diluting solution. Dilution solutions were also prepared from a blank solution containing no sample in the same way as above. […]
Absorbance was measured at a dominant wavelength of 450 nm and a sub-wavelength of 650 nm with a microplate reader (Cytation 5, BioTek Instrument Inc.), and the absorbance at the sub-wavelength was subtracted from the absorbance at the dominant wavelength. Change in the absorbance of GAL691 and Lys-hydroxy-triosidine was indicated as relative values to the absorbance of the blank solution.

[2] = tested on: HUVEC (human umbilical vein endothelial cells); assay: Neutralization test of vascular endothelial cell lumen formation inhibition (Example 14); format: cell-based; settings: antibody pre-reacted with Glycer-AGEs-BSA; HUVEC, 8 hours
Method: Matrigel matrix (Corning Inc.) was placed in a refrigerator and thawed overnight. The thawed Matrigel matrix was added at 300 μL/well to a 12-well plate (Corning Inc.) and hardened by still standing at 37° C. for 1 hour in a CO2 incubator (ESPEC Corp.).
10 μL of Glycer-AGEs-BSA (10 mg/mL) prepared in Example 1 or 10 μL of control BSA (10 mg/mL), phosphate-buffered saline (PBS, FUJIFILM Wako Pure Chemical Corp.), and 90 μL of SJ-5 (10 mg/mL) or a control antibody (10 mg/mL) were added to a 1.5 mL tube (Watson) and left standing at room temperature for 10 minutes. Then, a supernatant was recovered by centrifugation at 14000 rpm for 15 minutes using a centrifuge (Thermo Fisher Scientific Inc.).
HUVEC (human umbilical vein endothelial cells, National Institutes of Biomedical Innovation, Health and Nutrition, JCRB cell bank) was cultured in a 10 cm dish (Corning Inc.) using 10 mL of a medium for HUVEC (KAC Co., Ltd.).
The cultured HUVEC was washed with 10 mL of PBS. Then, 1 mL of trypsin-EDTA (FUJIFILM Wako Pure Chemical Corp.) was added thereto and left standing at room temperature for 3 minutes. […]
After the centrifugation, the supernatant was discarded, and precipitated cells were resuspended by the addition of 1 mL of a medium for HUVEC. […] Then, the number of live cells was counted in Auto Cell Counter EVE (NanoEnTek Inc.). […]

B1: SJ-5: mouse monoclonal antibody raised against GAL13-MSA; heavy-chain variable region SEQ ID NO 4, light-chain variable region SEQ ID NO 8 (antibody, listed as Mus musculus, V domains shown)
VH: EVMLVESGGRLVKPGGSLKLSCAASGFTFSSYGMSWVRQTPEKRLEWVATISGGGSYTYYPDSVKGRFTISRDNVKNNLYLQMSSLRSEDTALYYCARRGAYGDYGWFAYWGQGTLVTVSA
VL: DIVLTQSPATLSVTPGDSVSLSCRASQSINNNLHWYQQKSHESPRLLIKCASQSISGIPSRFSGSGSGTDFTLSINSVETEDFGMYFCQQSNSWPLTFGAGTKLELK
For B1, the “recognition of Lys-hydroxy-triosidine” value [1] was “does not recognize” and the “neutralization of lumen formation inhibition by Glycer-AGEs-BSA” value [2] was “neutralized”.
